The results in this text go back to patent publication US20240116985A1, “STAPLED PEPTIDES AND METHODS THEREOF” (priority 2020, published 2024).

First the molecules themselves.
B1: I-629 (peptide)
peptide: Ac-[αAllylPro]DL[B5(16)]DEAAF[Cit][S8]F[Bta]-NH2
modifications: staple 1-4, 4-11; not fully specified; printed as Ac-PL3-Asp-Leu-B5-Asp-Glu-Ala-Ala-Phe-Cit-S8-Phe-BztA-NH2
B2: I-969 (peptide)
peptide: Ac-[αAllylPro]D[tBuAla][B5(25)]D[EtGA]AAFT[PyrS2″][3Thi][Bta]Q-NH2
modifications: staple 1-4, 4-11; not fully specified; printed as Ac-PL3-Asp-Npg-B5-Asp-EtGA-Ala-Ala-Phe-Thr-PyrS2-3Thi-BztA-Gln-NH2
B3: I-967 (peptide)
peptide: Ac-[αAllylPro]D[tBuAla][B5(25)]D[EtGA]AAFS[PyrS2″][3Thi][Bta]Q-NH2
modifications: staple 1-4, 4-11; not fully specified; printed as Ac-PL3-Asp-Npg-B5-Asp-EtGA-Ala-Ala-Phe-Ser-PyrS2-3Thi-BztA-Gln-NH2

Starred links: 1 amine or outer side, 2 acyl side, 3 side chain; linkers in the order of their positions; H or OH if unused. Positions of bridges follow the written chain, without caps; N, C: chain ends. Non-standard residues stand in square brackets, D forms with d. Primed or numbered codes have the meaning given here. *: point of attachment. PyrS2″ = (S)-3-amino-1-((pent-4-en-1-yloxy)carbonyl)pyrrolidine-3-carboxylic acid (stapling residue), C=CCCCOC(=O)N1CC[C@@](N[*:1])(C(=O)[*:2])C1; Tf = trifluoromethylsulfonyl on Dap side-chain N ([Tf]Dap = (S)-2-amino-3-((trifluoromethyl)sulfonamido)propanoic acid), O=S(=O)(C(F)(F)F)*; B5(16) = 2-amino-2-(pent-4-en-1-yl)hept-6-enoic acid = 2,2-bis(4-pentenyl)glycine (stitching residue), C=CCCCC(CCCC=C)(N[*:1])C(=O)[*:2]; B5(4) = 2,2-bis(4-pentenyl)glycine = 2-amino-2-(pent-4-en-1-yl)hept-6-enoic acid (stitching residue), C=CCCCC(CCCC=C)(N[*:1])C(=O)[*:2]; PyrS2 = (S)-3-amino-1-((pent-4-en-1-yloxy)carbonyl)pyrrolidine-3-carboxylic acid, C=CCCCOC(=O)N1CC[C@@](N[*:1])(C(=O)[*:2])C1; B5(25) = 2-amino-2-(pent-4-en-1-yl)hept-6-enoic acid (stitching residue), C=CCCCC(CCCC=C)(N[*:1])C(=O)[*:2]; EtGA = (S)-2-amino-3-((carboxymethyl)(ethyl)amino)propanoic acid, CCN(CC(=O)[*:3])C[C@H](N[*:1])C(=O)[*:2]; Bta = N[C@@H](Cc1csc2ccccc12)C(=O)O; αAllylPro = C=CC[C@@]1(C(=O)O)CCCN1; tBuAla = CC(C)(C)C[C@H](N)C(=O)O; 3Thi = N[C@@H](Cc1ccsc1)C(=O)O; Cha = N[C@@H](CC1CCCCC1)C(=O)O; Cit = NC(=O)NCCC[C@H](N)C(=O)O; S8 = C=CCCCCCC[C@](C)(N)C(=O)O; Dap = NC[C@H](N)C(=O)O

The IC50 is the point on the concentration scale where inhibition reaches its midpoint. A high value points to weaker potency. By EC50 is commonly meant the midpoint of the concentration-response curve.

One test addresses full-length beta-Catenin (Uniprot ID P35222) (Homo sapiens (Human)) (UniProt P35222). In words: fluorescence polarization competition; full-length beta-catenin, competitor 5FAM-TCF4 10-53. A general note: Polarisation of emitted light reports the rotation of a fluorescent probe.
Target sequence in this assay (P35222 2-781 limits assumed): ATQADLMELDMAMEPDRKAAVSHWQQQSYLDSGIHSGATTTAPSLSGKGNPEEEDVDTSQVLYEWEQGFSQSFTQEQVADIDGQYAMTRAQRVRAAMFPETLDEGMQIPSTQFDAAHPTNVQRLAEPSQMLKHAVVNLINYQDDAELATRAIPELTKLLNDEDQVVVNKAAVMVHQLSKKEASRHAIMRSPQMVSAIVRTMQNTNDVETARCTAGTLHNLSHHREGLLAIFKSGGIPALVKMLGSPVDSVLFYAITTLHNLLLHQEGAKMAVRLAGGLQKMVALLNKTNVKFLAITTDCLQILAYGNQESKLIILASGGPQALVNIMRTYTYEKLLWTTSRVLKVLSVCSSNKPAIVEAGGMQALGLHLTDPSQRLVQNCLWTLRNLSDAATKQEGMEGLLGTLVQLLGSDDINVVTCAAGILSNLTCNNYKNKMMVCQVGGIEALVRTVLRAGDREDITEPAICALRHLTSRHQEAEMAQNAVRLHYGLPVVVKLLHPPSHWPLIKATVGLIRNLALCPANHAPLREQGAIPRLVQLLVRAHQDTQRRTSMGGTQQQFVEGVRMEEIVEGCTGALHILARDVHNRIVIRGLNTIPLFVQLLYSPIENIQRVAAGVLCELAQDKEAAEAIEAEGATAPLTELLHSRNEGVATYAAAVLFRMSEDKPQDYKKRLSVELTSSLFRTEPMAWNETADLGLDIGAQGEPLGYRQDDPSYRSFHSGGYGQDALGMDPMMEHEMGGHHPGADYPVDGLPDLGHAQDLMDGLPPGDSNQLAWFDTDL
For Ac-[αAllylPro]DI[B5(4)][Dap](Tf)EAAFQ[S8]F[Bta]Q-NH2 (staple 1-4, 4-11) [I-630], the IC50 amounted to 5000 nM.

For Ac-[αAllylPro]D[Cha][B5(4)]DEAAFN[S8]F[Bta]-NH2 (staple 1-4, 4-11) [I-627], the IC50 came out at 338 nM.

Ac-[αAllylPro]DI[B5(4)][Dap](Tf)EAAFQ[S8]F[Bta]Q-NH2 (staple 1-4, 4-11) [I-631] showed an IC50 of 5000 nM.

For B1, the IC50 was found to be 36 nM.

On to Ac-[αAllylPro]DL[B5(4)]DEAAF[Cit][S8]F[Bta]-NH2 (staple 1-4, 4-11) [I-628], for which the IC50 amounted to 60 nM.

Molecule Ac-[αAllylPro][Dap](Tf)I[B5(4)]DEAAFQ[S8]F[Bta]Q-NH2 (staple 1-4, 4-11) [I-632] yielded an IC50 of 5000 nM.

The next test has the same target. Description: fluorescence polarization competition; displacement of 5FAM-TCF4(10-53) from full-length beta-catenin.
Target sequence in this assay (P35222 whole entry): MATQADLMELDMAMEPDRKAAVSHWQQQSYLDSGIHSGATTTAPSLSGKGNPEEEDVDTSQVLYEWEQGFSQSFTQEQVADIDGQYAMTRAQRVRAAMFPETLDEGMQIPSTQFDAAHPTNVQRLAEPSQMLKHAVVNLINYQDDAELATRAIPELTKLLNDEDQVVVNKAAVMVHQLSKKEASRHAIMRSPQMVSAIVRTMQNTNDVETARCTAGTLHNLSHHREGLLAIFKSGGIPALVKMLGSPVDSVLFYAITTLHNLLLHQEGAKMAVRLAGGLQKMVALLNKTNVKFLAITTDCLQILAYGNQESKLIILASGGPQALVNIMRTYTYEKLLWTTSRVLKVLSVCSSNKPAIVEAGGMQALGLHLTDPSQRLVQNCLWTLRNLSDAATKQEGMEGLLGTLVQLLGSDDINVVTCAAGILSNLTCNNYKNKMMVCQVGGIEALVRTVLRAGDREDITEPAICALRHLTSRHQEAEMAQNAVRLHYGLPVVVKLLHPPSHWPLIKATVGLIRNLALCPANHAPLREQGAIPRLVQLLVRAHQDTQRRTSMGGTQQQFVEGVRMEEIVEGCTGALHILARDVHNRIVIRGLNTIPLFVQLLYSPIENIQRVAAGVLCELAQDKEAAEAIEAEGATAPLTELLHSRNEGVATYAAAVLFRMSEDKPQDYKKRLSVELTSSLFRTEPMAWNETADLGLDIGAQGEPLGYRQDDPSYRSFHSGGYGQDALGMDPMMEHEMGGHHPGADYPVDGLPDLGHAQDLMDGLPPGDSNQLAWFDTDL
Turning to Ac-[αAllylPro]D[tBuAla][B5(4)]DYAAFN[PyrS2][3Thi][Bta]H-NH2 (staple 1-4, 4-11) [I-843], the IC50 came out at 154 nM.

The molecule Ac-[αAllylPro]D[tBuAla][B5(4)]DTAAFN[PyrS2][3Thi][Bta]H-NH2 (staple 1-4, 4-11) [I-845] came in with an IC50 of 7 nM.

For a further test the target is unchanged. Description: fluorescence polarization competition; full-length beta-catenin with 5FAM-labeled TCF4 (10-53) probe as competitor.
Target sequence in this assay (P35222 whole entry): as above
Molecule Ac-[αAllylPro]D[tBuAla][B5(4)]D[EtGA]AAFS[PyrS2″][3Thi][Bta]S-NH2 (staple 1-4, 4-11; also: earlier eluting HPLC staple isomer) [I-974] gave a concentration for a half-maximal effect (EC50) of 1780 nM.

Molecule Ac-[αAllylPro]D[tBuAla][B5(4)]D[EtGA]AAFS[PyrS2″][3Thi][Bta]S-NH2 (staple 1-4, 4-11; also: later eluting HPLC staple isomer) [I-975] showed an EC50 of 1710 nM.

On to B2, for which the EC50 was determined as 2320 nM.

Ac-[αAllylPro]D[tBuAla][B5(25)]D[EtGA]AAFT[PyrS2″][3Thi][Bta]Q-NH2 (staple 1-4, 4-11; also: earlier-eluting HPLC staple isomer) [I-968] displayed an EC50 of 2980 nM.

In turn, Ac-[αAllylPro]D[tBuAla][B5(25)]D[EtGA]AAFS[PyrS2″][3Thi][Bta]Q-NH2 (staple 1-4, 4-11; also: earlier-eluting HPLC staple isomer) [I-966] displayed an EC50 of 2020 nM.

For the molecule B3, the EC50 was 1740 nM.

The target is the same in another test. In words: fluorescence polarization competition; 10 nM full-length beta-catenin with 10 nM 5FAM-TCF4 (residues 10-53) probe as competitor.
Target sequence in this assay (P35222 2-781 limits assumed): as the sequence (P35222 2-781 limits assumed) above
Molecule Ac-[αAllylPro]D[tBuAla][B5(4)]DYAAFN[PyrS2][3Thi][Bta]H-NH2 (staple 1-4, 4-11) [I-843] displayed an EC50 of 154 nM.

The molecule Ac-[αAllylPro]D[tBuAla][B5(4)]DTAAFN[PyrS2][3Thi][Bta]H-NH2 (staple 1-4, 4-11) [I-845] gave an EC50 of 7 nM.

A further test shares this target. In words: fluorescence polarization competition; peptide titrated against 10 nM full-length beta-catenin + 10 nM 5FAM-TCF4(10-53) probe.
Target sequence in this assay (P35222 whole entry): as the sequence (P35222 whole entry) above
Take Ac-[αAllylPro]DI[B5(4)][Dap](Tf)EAAFQ[S8]F[Bta]Q-NH2 (staple 1-4, 4-11) [I-630]: the EC50 stood at 5000 nM.

With Ac-[αAllylPro]D[Cha][B5(4)]DEAAFN[S8]F[Bta]-NH2 (staple 1-4, 4-11) [I-627], the EC50 is 338 nM.

For the molecule Ac-[αAllylPro]DI[B5(4)][Dap](Tf)EAAFQ[S8]F[Bta]Q-NH2 (staple 1-4, 4-11) [I-631], the EC50 amounted to 5000 nM.

B1: the EC50 was 685 nM.

For the molecule Ac-[αAllylPro]DL[B5(4)]DEAAF[Cit][S8]F[Bta]-NH2 (staple 1-4, 4-11) [I-628], the EC50 was 713 nM.

Ac-[αAllylPro][Dap](Tf)I[B5(4)]DEAAFQ[S8]F[Bta]Q-NH2 (staple 1-4, 4-11) [I-632]: the EC50 was 5000 nM.

Another test has the same target. Description: fluorescence polarization competition vs 5FAM-TCF4(10-53) on full-length beta-catenin.
Target sequence in this assay (P35222 2-781 limits assumed): as the sequence (P35222 2-781 limits assumed) above
Consider Ac-[αAllylPro]D[tBuAla][B5(4)]D[EtGA]AAFS[PyrS2″][3Thi][Bta]S-NH2 (staple 1-4, 4-11; also: earlier eluting HPLC staple isomer) [I-974], for which the IC50 amounted to 1780 nM.

Ac-[αAllylPro]D[tBuAla][B5(4)]D[EtGA]AAFS[PyrS2″][3Thi][Bta]S-NH2 (staple 1-4, 4-11; also: later eluting HPLC staple isomer) [I-975] gave an IC50 of 2240 nM.

B2 had an IC50 of 2320 nM.

Ac-[αAllylPro]D[tBuAla][B5(25)]D[EtGA]AAFT[PyrS2″][3Thi][Bta]Q-NH2 (staple 1-4, 4-11; also: earlier-eluting HPLC staple isomer) [I-968] registered a half-maximal inhibitory concentration (IC50) of 2980 nM.

Ac-[αAllylPro]D[tBuAla][B5(25)]D[EtGA]AAFS[PyrS2″][3Thi][Bta]Q-NH2 (staple 1-4, 4-11; also: earlier-eluting HPLC staple isomer) [I-966]: the IC50 amounted to 2020 nM.

In turn, B3 registered an IC50 of 1740 nM.
